# Measured values published in patent US20050037969A1 (ARBOR VITA, published 2005).
# Ends that are not written are not given here. * marks the point of attachment. Biotin = O=C1N[C@H]2[C@H](CS[C@H]2CCCCC(=O)*)N1
# T1: GST-LIM protein PDZ domain fusion protein (Human, UniProt Q96HC4 2-85)
# T1 construct: also called Human LIM protein; not shown: glutathione S-transferase encoded by vector pGEX-3X (Pharmacia)
# T1 sequence: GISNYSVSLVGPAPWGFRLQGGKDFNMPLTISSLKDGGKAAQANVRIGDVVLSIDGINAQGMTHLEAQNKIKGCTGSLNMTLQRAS
# T2: GST-PDZK1 fusion protein (PDZ domains 2-4) (Homo sapiens, UniProt Q5T2W1 134-457)
# T2 construct: not shown: glutathione S-transferase encoded by vector pGEX-3X (Pharmacia)
# T2 sequence: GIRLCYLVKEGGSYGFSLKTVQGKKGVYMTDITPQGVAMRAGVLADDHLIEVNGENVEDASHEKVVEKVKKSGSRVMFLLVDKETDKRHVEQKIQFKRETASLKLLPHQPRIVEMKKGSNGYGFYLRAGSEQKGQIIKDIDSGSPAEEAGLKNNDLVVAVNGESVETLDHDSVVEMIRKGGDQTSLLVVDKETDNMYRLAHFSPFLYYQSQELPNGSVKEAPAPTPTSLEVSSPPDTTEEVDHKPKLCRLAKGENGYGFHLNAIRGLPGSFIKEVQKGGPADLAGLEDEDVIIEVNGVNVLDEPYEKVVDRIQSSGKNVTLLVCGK
# T3: GST-DLG5 (p-dlg) PDZ domain fusion protein (Human, UniProt Q8TDM6 1343-1583)
# T3 construct: also called Human discs large protein p-dlg; not shown: glutathione S-transferase encoded by vector pGEX-3X (Pharmacia)
# T3 sequence: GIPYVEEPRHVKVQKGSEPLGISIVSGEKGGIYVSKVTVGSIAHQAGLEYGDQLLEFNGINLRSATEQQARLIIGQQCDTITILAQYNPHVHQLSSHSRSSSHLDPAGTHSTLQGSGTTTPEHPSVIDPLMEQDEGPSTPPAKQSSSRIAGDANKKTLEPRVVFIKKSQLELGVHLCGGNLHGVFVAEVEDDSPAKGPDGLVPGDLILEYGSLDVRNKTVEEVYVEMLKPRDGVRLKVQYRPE
# T4: GST-TAX-IP40 PDZ domain fusion protein (human, UniProt Q6B4M5 150-252 (rat entry))
# T4 construct: also called TAX40; not shown: glutathione S-transferase encoded by vector pGEX-3X (Pharmacia)
# T4 sequence: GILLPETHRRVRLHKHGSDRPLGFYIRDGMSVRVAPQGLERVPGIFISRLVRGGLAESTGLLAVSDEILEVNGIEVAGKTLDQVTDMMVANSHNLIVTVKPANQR
# T5: GST-DVL1 PDZ domain fusion protein (human, UniProt O14640 247-339)
# T5 construct: also called human dishevelled segment polarity protein homolog; not shown: glutathione S-transferase encoded by vector pGEX-3X (Pharmacia)
# T5 sequence: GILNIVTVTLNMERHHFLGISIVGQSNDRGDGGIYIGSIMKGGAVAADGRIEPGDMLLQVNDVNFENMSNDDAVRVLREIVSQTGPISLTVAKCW
# T6: GST-KIAA0303 PDZ domain fusion protein (Homo sapiens (Human), UniProt O15021 1138-1228)
# T6 construct: also called K303; not shown: glutathione S-transferase encoded by vector pGEX-3X (Pharmacia)
# T6 sequence: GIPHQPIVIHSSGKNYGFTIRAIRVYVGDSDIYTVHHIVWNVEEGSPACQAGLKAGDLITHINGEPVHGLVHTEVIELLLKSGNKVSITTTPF
# T7: TAX-IP2L PDZ-GST fusion protein (Homo sapiens (Human), UniProt Q8TF64 107-197)
# T7 construct: Order of GST and PDZ part and limits not seen in the excerpts
# T7 sequence: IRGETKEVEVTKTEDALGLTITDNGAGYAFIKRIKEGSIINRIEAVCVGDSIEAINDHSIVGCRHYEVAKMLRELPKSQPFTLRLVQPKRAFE
# T8: TAX-IP33 PDZ-GST fusion protein (Homo sapiens (Human), UniProt O14910 103-193)
# T8 construct: Order of GST and PDZ part and limits not seen in the excerpts
# T8 sequence: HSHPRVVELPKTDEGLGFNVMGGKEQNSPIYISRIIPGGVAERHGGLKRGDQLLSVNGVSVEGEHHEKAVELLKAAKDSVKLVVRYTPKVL
# T9: MINT3 PDZ-GST fusion protein
# T9 construct: Order of GST and PDZ part and limits not seen in the excerpts
# T9 chain: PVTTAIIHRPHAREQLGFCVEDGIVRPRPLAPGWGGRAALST
# T10: K559 PDZ-GST fusion protein (Homo sapiens (Human), UniProt Q9Y6V0 4489-4593)
# T10 construct: Order of GST and PDZ part and limits not seen in the excerpts
# T10 sequence: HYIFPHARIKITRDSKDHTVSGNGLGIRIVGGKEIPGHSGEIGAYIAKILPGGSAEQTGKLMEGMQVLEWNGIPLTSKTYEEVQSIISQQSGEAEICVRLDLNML
# T11: GEF PDZ-GST fusion protein (Homo sapiens (Human), UniProt Q8TEU7 293-400)
# T11 construct: The label GEF is not explained in the excerpts
# T11 sequence: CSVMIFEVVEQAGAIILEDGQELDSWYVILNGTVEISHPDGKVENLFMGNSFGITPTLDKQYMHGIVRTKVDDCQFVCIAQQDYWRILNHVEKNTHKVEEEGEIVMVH
# B1: PAG C-terminal peptide AA58L, biotinylated (peptide)
# peptide: Biotin-KENDYESISDLQQGRDITRL
# notes: also called Phosphoprotein Associated with GEMs
# Biological target: T1, GST-LIM protein PDZ domain fusion …
# Experiment: A/G assays
row,binding result,Binder
1,no binding,"Biotin-AWDDSARAAGGQGLHVTAL [LPAP C-terminal peptide AA30L, biotinylated]"
2,no binding,B1

# Biological target: T2, GST-PDZK1 fusion protein (PDZ domains …)
# Experiment: A/G assays
row,binding result,Binder
1,no binding,"Biotin-AWDDSARAAGGQGLHVTAL [LPAP C-terminal peptide AA30L, biotinylated]"
2,no binding,B1

# Biological target: T3, GST-DLG5 (p-dlg) PDZ domain fusion …
# Experiment: A/G assays
row,binding result,Binder
1,no binding,"Biotin-AWDDSARAAGGQGLHVTAL [LPAP C-terminal peptide AA30L, biotinylated]"
2,no binding,B1

# Biological target: T4, GST-TAX-IP40 PDZ domain fusion protein
# Experiment: A/G assays
row,binding result,Binder
1,no binding,"Biotin-AWDDSARAAGGQGLHVTAL [LPAP C-terminal peptide AA30L, biotinylated]"
2,no binding,B1

# Biological target: T12, GST-TIAM1 PDZ domain fusion protein (Homo sapiens (Human), UniProt Q13009 845-931)
# T12 construct: also called TLAM1; T-lymphoma invasion and metastasis inducing protein 1; not shown: glutathione S-transferase encoded by vector pGEX-3X (Pharmacia)
# T12 sequence (Q13009 other isoform, or with tags, fused parts or gaps): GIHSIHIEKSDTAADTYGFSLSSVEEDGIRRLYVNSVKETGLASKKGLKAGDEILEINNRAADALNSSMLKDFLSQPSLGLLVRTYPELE
# Experiment: A/G assays
row,binding result,Binder
1,no binding,"Biotin-AWDDSARAAGGQGLHVTAL [LPAP C-terminal peptide AA30L, biotinylated]"
2,no binding,B1

# Biological target: T5, GST-DVL1 PDZ domain fusion protein
# Experiment: A/G assays
row,binding result,Binder
1,no binding,"Biotin-AWDDSARAAGGQGLHVTAL [LPAP C-terminal peptide AA30L, biotinylated]"
2,no binding,B1

# Biological target: T6, GST-KIAA0303 PDZ domain fusion protein
# Experiment: A/G assays
row,binding result,Binder
1,no binding,"Biotin-AWDDSARAAGGQGLHVTAL [LPAP C-terminal peptide AA30L, biotinylated]"
2,no binding,B1

# Biological target: T7, TAX-IP2L PDZ-GST fusion protein
# Experiment: A/G assays
row,binding result,Binder
1,no binding,"Biotin-AWDDSARAAGGQGLHVTAL [LPAP C-terminal peptide AA30L, biotinylated]"
2,no binding,B1

# Biological target: T8, TAX-IP33 PDZ-GST fusion protein
# Experiment: A/G assays
row,binding result,Binder
1,no binding,"Biotin-AWDDSARAAGGQGLHVTAL [LPAP C-terminal peptide AA30L, biotinylated]"
2,no binding,B1

# Biological target: T9, MINT3 PDZ-GST fusion protein
# Experiment: A/G assays
row,binding result,Binder
1,no binding,"Biotin-AWDDSARAAGGQGLHVTAL [LPAP C-terminal peptide AA30L, biotinylated]"
2,no binding,B1

# Biological target: T10, K559 PDZ-GST fusion protein
# Experiment: A/G assays
row,binding result,Binder
1,no binding,"Biotin-AWDDSARAAGGQGLHVTAL [LPAP C-terminal peptide AA30L, biotinylated]"
2,no binding,B1

# Biological target: T13, NSP PDZ-GST fusion protein (Homo sapiens (Human), UniProt Q92743 370-466)
# T13 construct: The label NSP is not explained in the excerpts
# T13 sequence (Q92743 other isoform, or with tags, fused parts or gaps limits assumed): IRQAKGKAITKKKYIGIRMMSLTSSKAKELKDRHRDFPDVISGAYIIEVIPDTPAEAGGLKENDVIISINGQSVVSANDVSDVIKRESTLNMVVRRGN
# Experiment: A/G assays
row,binding result,Binder
1,no binding,"Biotin-AWDDSARAAGGQGLHVTAL [LPAP C-terminal peptide AA30L, biotinylated]"
2,no binding,B1

# Biological target: T11, GEF PDZ-GST fusion protein
# Experiment: A/G assays
row,binding result,Binder
1,no binding,"Biotin-AWDDSARAAGGQGLHVTAL [LPAP C-terminal peptide AA30L, biotinylated]"
2,no binding,B1

# Biological target: T14, NOS1 PDZ-GST fusion protein (Homo sapiens (Human), UniProt P29475 11-100)
# T14 construct: Order of GST and PDZ part and limits not seen in the excerpts
# T14 sequence (P29475 11-100 limits assumed): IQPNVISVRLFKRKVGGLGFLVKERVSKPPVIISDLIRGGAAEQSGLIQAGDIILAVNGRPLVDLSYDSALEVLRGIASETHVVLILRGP
# Experiment: A/G assays
row,binding result,Binder
1,no binding,B1
